Measured values published in PMC9796789 (The Febs Journal, 2022).
Each block holds one molecule with its values, some of them ahead of it.

Legend:
[1] = biological target: CrtE from Synechococcus elongatus sp. PCC 7942 with a C-terminal His-tag (SeCrtE-His) (Synechococcus elongatus sp. PCC 7942); assay: crystal structure
[2] = biological target: T1, SeCrtE (Synechococcus elongatus, UniProt Q31Q61); assay: LC-MS of prenyl pyrophosphate products; type: biochemical; conditions: 50 µM DMAPP, 100 µM IPP, 10 mM MgCl2, 25 mM MOPSO pH 7.2, 30 °C, 2 h
T1 sequence (Q31Q61 1-301): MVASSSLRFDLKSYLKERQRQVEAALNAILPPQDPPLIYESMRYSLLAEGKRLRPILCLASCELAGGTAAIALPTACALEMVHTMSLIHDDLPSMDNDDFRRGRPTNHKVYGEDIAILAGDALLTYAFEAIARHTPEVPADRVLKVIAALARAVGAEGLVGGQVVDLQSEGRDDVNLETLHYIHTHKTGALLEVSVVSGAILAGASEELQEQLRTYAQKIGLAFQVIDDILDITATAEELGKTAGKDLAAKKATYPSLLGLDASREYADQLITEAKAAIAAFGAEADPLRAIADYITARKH

[3] = biological target: T2, SyCrtE (Synechocystis sp. PCC 6803, UniProt P72683); assay: LC-MS of prenyl pyrophosphate products; type: biochemical; conditions: 50 µM DMAPP, 100 µM IPP, 10 mM MgCl2, 25 mM MOPSO pH 7.2, 30 °C, 2 h
T2 sequence (P72683 1-302): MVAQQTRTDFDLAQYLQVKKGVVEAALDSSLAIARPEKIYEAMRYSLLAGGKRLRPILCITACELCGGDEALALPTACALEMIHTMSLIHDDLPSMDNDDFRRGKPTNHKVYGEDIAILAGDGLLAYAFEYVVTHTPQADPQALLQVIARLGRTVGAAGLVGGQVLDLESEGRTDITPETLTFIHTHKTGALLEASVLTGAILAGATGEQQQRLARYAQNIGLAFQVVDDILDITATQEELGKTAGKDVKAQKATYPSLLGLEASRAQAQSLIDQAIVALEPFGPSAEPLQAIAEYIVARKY

[4] = biological target: the molecule itself; assay: crystal structure

stoichiometry N [1]: 2
Molecule: CrtE from Synechococcus elongatus sp. PCC 7942 with a C-terminal His-tag (SeCrtE-His) (enzyme)

Molecule: CC(C)=CCC/C(C)=C/CC/C(C)=C/CC/C(C)=C/COP(=O)(O)OP(=O)(O)O [GGPP]
LC-MS of prenyl pyrophosphate products [2]: For SeCrtE, only GGPP formation was detected
LC-MS of prenyl pyrophosphate products [3]: Under identical experimental conditions, SyCrtE produced GGPP, GPP and FPP

B1: CrtE from Synechocystis sp. PCC 6803 with a C-terminal His-tag (SyCrtE-His) (enzyme)
chain: T2 sequence (P72683 1-302)
stoichiometry N [4]: 2
